In PMC4070737 (Cytoskeleton (Hoboken, N.J.), 2013):

Target: the molecule itself
Assay: AUC

B1: EB1_(248), activated fragment of human EB1 lacking the autoinhibitory tail domain (domain or fragment, UniProt Q15691 1-248, looked up)
chain: MAVNVYSTSVTSDNLSRHDMLAWINESLQLNLTKIEQLCSGAAYCQFMDMLFPGSIALKKVKFQAKLEHEYIQNFKILQAGFKRMGVDKIIPVDKLVKGKFQDNFEFVQWFKKFFDANYDGKDYDPVAARQGQETAVAPSLVAPALNKPKKPLTSSSAAPQRPISTQRTAAAPKAGPGVVRKNPGVGNGDDEAAELMQQVNVLKLTVEDLEKERDFYFGKLRNIELICQENEGENDPVLQRIVDILYA
- stoichiometry N: 2
